# Test results reported in the nanobody polyreactivity screen of Harvey et al. (2022).
# Experiment: yeast display, Sf9 membrane polyspecificity reagent, FACS + sequencing; frameworks hold sequencing errors
# Procedure, shortened: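 Galactose induction of a Saccharomyces cerevisiae BJ5465 synthetic nanobody display library ran 36–48 hours. The cells were then stained for 1 hour at 4 °C with 10% biotinylated, detergent-solubilized Sf9 membrane reagent, pulled down on streptavidin microbeads and FACS-sorted into low and high (top ~1%) gates on expression and reagent-binding fluorescence. Labels for polyreactivity follow the gate of origin.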
row,Sequence,polyreactivity (PSR sort gate)
1,QVQLVESGGGLVQAGGSLRLSCAPSGSIFDVNAMGWYRQSPGKESELVAAISDSGGSTYYADSVKGRFTISRDNAKNTVYLQMNSLKPEDTAVYYCNADWSWYNYYEFDYWGQGTQVTVSS,low polyreactivity
2,QVQLVESGGGLVQAGGSLRLSCAPSGSIFFPYAIGWYRQAPGKESELVAAISYSGTSTYYADSVKGRFTISRDNAKNTVYLQMNSLIPEDTAVYYCAAEVIGRYIEYYYWGQGTQVTVSS,high polyreactivity
3,QVQLVESGGGLVQAGGSLRLSCAPSGSIFVYYAMGWYIQAPGKERELVAAITTSGGSTYYADSVKGRFTISRDNAKNTVYLQMNSLKPEDTAVYYCAAELLAWYWSFSVPCPYDYWGQGTQVTVSS,low polyreactivity
4,QVQLVESGGGLVQAGGSLRLSCAPSGSIYTPYAMGWYRPAPGKLRELVADISRSGSTNYADSVKGRFTISLDNAKKTVYLQMNSLKPEDTAVYYCNADFWWHWGTSYDYWGQGTQVTVSS,high polyreactivity
5,QVQLVESGGGLVQAGGSLRLSCAPSGSTFDRNDMGWYRQAPGKERELVAAISRVSSTNYADSVKVRFTISRDNAKNTVYLQMNSLKPADTAVYYCAADRAGSIMNYWGQGTQETVSS,low polyreactivity
6,QVQLVESGGGLVQAGGSLRLSCAPSGSTFFLYVMGWYRQAPGKEREWVAAITSGGRTYYADSVKGRFTISRDNAKNTVYLQMNSLKREDTAVYYCAADVRRVRVGKYDYWGQGPQVTVSS,high polyreactivity
7,QVQLVESGGGLVQAGGSLRLSCAPSGSTFNNYALGGYRQAPGKERELVAAIRSIGGSTYYADSVKGRFTISRDNAKNTVYLQMNSLKPEDTAVYYCAADYFYLKWYEYWGQGTQVTVSS,high polyreactivity
8,QVQLVESGGGLVQAGGSLRLSCAPSGSTLTSNAMGWYRQAPGKERELVAASRSGGSTNYADSVKGRFTISRDNAKNTVYLQMNSLKPEDTAVYYCNKDFLWQGYGYSRVSYDYWGQGTQVTVSS,low polyreactivity
9,QVQLVESGGGLVQAGGSLRLSCASGSTYVYAMGWYRQAPGKERELVATISSTGSTYYADSVKGRFTISRDNAKNTVYLQMNSLKQEDTAVYYCAADVWNNGWIYGSYDEYDYWGQGTQVTVSS,high polyreactivity
10,QVQLVESGGGLVQAGGSLRLSCASSGIIFYPNAMGWYRQAPAKERELVAAITSDGSTYYADSVKGRFTISRDNAMNTVYLQMNRLKPEDTAVYYCAAWEDYGYDYWGQGTQVTVSS,low polyreactivity
11,QVQLVESGGGLVQAGGSLRLSCASSGIILYAYAKGWYRQAPGKERELVAAISRSGGRTYYADSVKGRFTISRDKAKNTVYLQMNSLKPEDTAVYYCATVTRYPDGHRFDYWGQGTQVTVSS,high polyreactivity
12,QVQLVESGGGLVQAGGSLRLSCASSGITFPFYTMGWYRQAPGKERELVAAISSRGTSTYYADSVKGRFTISRDNAKNTVYLQMNSLKPEDTAVYYCKARATPQRAYDSWGQGTQVTVSS,high polyreactivity
13,QVQLVESGGGLVQAGGSLRLSCASSGITFVRYAMAWYRPAPGKERELVAVISRGGITNYADSVKGRFTISRDNAKNTVYFQMNSLKPEDTGVYYCNREKRIRSSGGLYYWGQGTQVSVSS,high polyreactivity
14,QVQLVESGGGLVQAGGSLRLSCASSGLIFGANAMGWYRQAPVKARELVAVITSDGSTDYADSVKGRFIISRDNAKNTVYLQMNSLKPEDTAVYYCATTFYLIFGYTYSAYYYWGHGTQVTVSS,high polyreactivity
15,QVQLVESGGGLVQAGGSLRLSCASSGLIFGRNVMGWYRQAPGKERELVAAISWSGGRTYYADSVKGRFTISRDNAKNTVYLQMNSLKPEDTAVYYCAADDGPGFDYWGQGTQVTVSS,high polyreactivity
16,QVQLVESGGGLVQAGGSLRLSCASSGLIFSIYAMGWYRQAPGKERELVAAIRWSGGSTYYADSVKGRFTISRDNAKNTVYLQMNSLKPEDTAVYYCNADITVYVRIYQYNYCGQGTQVTVSS,low polyreactivity
17,QVQLVESGGGLVQAGGSLRLSCASSGLIFYKNAMGWYRQAPGKVRELVAAISWRDGRTYYADSVKGRFTISRDNAKNTVYLQMNSLKPEDTAVYYCNAVRGITYYDYFYWGQGTQVTVSS,high polyreactivity
18,QVQLVESGGGLVQAGGSLRLSCASSGLTFKQYAMVWYRQAPGKERELVAAITVSGGDTYYADSVKGRFTISRDNAKNTVYLQMNSLKPEDTAVYYCAAEHFFWGYDYWGQGTQVTVSS,high polyreactivity
19,QVQLVESGGGLVQAGGSLRLSCASSGLTFRYNAMGWYRQAPGKERELVAAIRTSGGSTYYADSVKGRFTISRDNAKNTVYLQMNSLKPEDTAVYYCAARSKSYYGGYARGYWGQGTQVTVSS,high polyreactivity
20,QVQLVESGGGLVQAGGSLRLSCASSGNTFTVNAMGWYRQAPGKERELVAAINYSGGSTYYADSVKGRFTISRDNAKNTVYLQMNSLKPEDTAVYYCAASPDELLYEMYYWGQGTQVTVSS,low polyreactivity
21,QVQLVESGGGLVQAGGSLRLSCASSGNTFYGYAMGWYRQAPGKERELVASITLSGDSTYYADSVKGRFTISRDNAKNTVYLQMNSLKPEDTAVYYCAGVYTYPLGYYHYTYDYWGQGTQVTVSS,low polyreactivity
22,QVQLVESGGGLVQAGGSLRLSCASSGRIFKYYSMGCYRQSPGKVRELVASISWSGGSTYYADSVKGRFTISRDNAKNTVYLQMNSLKPEDTAVYYCAAYVTYLRYRSNIAYYGYDYWGQGTQVTVSS,high polyreactivity

row,Sequence,polyreactivity (PSR sort gate)
1,QVQLVESGGGLVQAGGSLRLSCASSGRIFRYYDMGWYRQAPGKERELVASITSGGSTNYADSVKGRFTISRDNAKNTVYLQMNSLKPEDTAVYYCAARWGYARANGYDYWGQGTQVTVSS,high polyreactivity
2,QVQLVESGGGLVQAGGSLRLSCASSGRTFAGNVMGWYRQAPGKERELVAAITGRGGSTYYADSVKGRFTISRDNAKNTVYLQMNSLKPEDTAVYYCNALTWPRYYYWGQGTQVTVSS,high polyreactivity
3,QVQLVESGGGLVQAGGSLRLSCASSGRTFALYAMGWYRKAPGKERELVAGITFRGGSTYYADSVKGRFTISRDNAKKTVYLQMISQKPEDNAVYYCAAERWRWYYSWNMDYWGQCTQVTVSS,high polyreactivity
4,QVQLVESGGGLVQAGGSLRLSCASSGRTFLHNAMGWYRQAPGKERELVAAISSRGGSTYYADSVKGRFTISRDNAKNTVYLQMNSLKPEDTAVYYCAADLVVYRYDYWGQGTQVTVSS,high polyreactivity
5,QVQLVESGGGLVQAGGSLRLSCASSGRTFPGNAMGWYRQAPGKERELVATISSGGTTNYADSVKGRFTISRDNAKNTVYLQMNSLKPDDTAFYYCATDTYHHKADYEYWGQGTQVTLSS,low polyreactivity
6,QVQLVESGGGLVQAGGSLRLSCASSGRTFTKYAMGWYRHPPGKESELVAAISRSGGSTYYADSVKGRFTISRDNAKNTVYLQMNSLKPEDTAVYYWAARGQYRYSFGDYSWGQGTQVTVSS,high polyreactivity
7,QVQLVESGGGLVQAGGSLRLSCASSGRTLGGYAMGWYRQAPGKERELVAAITRRGGSTYYADSVKGRFTISRDNAKNTVYLLMNSLKTEDTAVYYCAARWYARSLTRFNYWGEGTQVTVSS,high polyreactivity
8,QVQLVESGGGLVQAGGSLRLSCASSGSIFVLNAMGWYRQAPVKESELVAGITYSGGSTYYADSVKGRFTISRDNAKNTVYLQMNSLKPEDTAVYYWSAPVRRYPYPGRFYYWGQGTQVTVSS,low polyreactivity
9,QVQLVESGGGLVQAGGSLRLSCASSGSIFYPYAMGWYRPAPGKERELVAAISSGGTTYYADSVKGRFTISRDNAKNTVYLQMNSLKPEDTAVYYCAAGFYLRAVWMDYWGQGTQVTVSS,high polyreactivity
10,QVQLVESGGGLVQAGGSLRLSCASSGSIFYYTEIGWYRQAPGKERELVAAISWGDGITYYADSVKGRFTISRDYAKNTVSLLMNSLKPEDTAFYYCAVDYYYLPFDYWGQGTQGTVSS,high polyreactivity
11,QVQLVESGGGLVQAGGSLRLSCASSGSISYYAMGWYRQAPGKERELVAAISSGGSTYYADSVKGRFTISRDNAKNTVYLQMNSLKPEDTAVYYCAVRYIIRGYATRYYYWGQGTQVTVSS,high polyreactivity
12,QVQLVESGGGLVQAGGSLRLSCASSGSTFAQNTMGWYRQAPRKERELVATISDGGGSTYYADSVKGRFTISRDNAKNTVYLQMNSLKPEDTAVYYCNTDRFWPSDYWGQGTQVTVSS,low polyreactivity
13,QVQLVESGGGLVQAGGSLRLSCASSGSTFFLNAMGWYRQAPGKEREFVAAISYTSTSTYYADSVKGRFTISRDNAKNTVYLQMNSLKPEDTAVYYCAVDAAGWYYTVETGDYAEDYWGQGTQVTVSS,low polyreactivity
14,QVQLVESGGGLVQAGGSLRLSCASSGSTFPRNAMGWYRQAPGKERELVAAITRSGANTHYADSVKGRFTISRDNAKNTVYLQMNSLKPEDTAVYYCAARSFTAYLGYYWGQGTQVTVSS,high polyreactivity
15,QVQLVESGGGLVQAGGSLRLSCASSGSTFRYYAMGWYRPPPGKEREWVAVITSGGSTYYADSVKGRFTISRDNAKNTVSLQMNSLKPEDTAVDYCAAVYAFYVDFDYWGQGTQVTVSS,low polyreactivity
16,QVQLVESGGGLVQAGGSLRLSCASSGSTFSPNAMGWYRQAPGKERELVAAITYRGANTYYADSVKGRFTISRDNAKNTVYLQMNSLKPEDTAVYYCAAEYAYHHVGFGYWGQGTQVTVSS,low polyreactivity
17,QVQLVESGGGLVQAGGSLRLSCASSGSTIYPNAMGWYRQAPGKERELVARISRTGGSTYADSVKGRFTISRDNAKNTVYLQMNSLKPEDTAVYYCARSYASFSWLRTKEPYEYWGQGTQVTVSS,low polyreactivity
18,QVQLVESGGGLVQAGGSLRLSCASSGSTIYYNAMGWYRQAPGKERELVAAISNAGSTYYADSVKGRFTISRDNAENTVYLQMNSLKPEDTAVYYCAKRFRGITYSYYYWGQGTQVTVSS,high polyreactivity
19,QVQLVESGGGLVQAGGSLRLSCASSGSTLRSYAMGWYRQAPGKERELVAAIDWDGGRTYYADSVKGRFTISRDNAKNTVYIQMNSLKPEDTAVYYCNTSAGWSNGKDEGDFYSGFDYWVQGTQVTVSS,low polyreactivity
20,QVQLVESGGGLVQAGGSLRLSCASSGYIFAGNAMGWYRQAPGKERELVAVITRGGRTYYADSVKGRFTISRDNAKNTVYLQMNSLKPEDTAVYYCAARYPYRGWGQGTQVTVSS,high polyreactivity
21,QVQLVESGGGLVQAGGSLRLSCASSGYTFTIYAMGWYRQAPGKERELVAAITGRGGRTNYADSVKGRFTISRDNAKNTVYLQIYRLIPVDTAVYYCNAVTKVVYHGPYGYDYWGQGTQVTVSS,high polyreactivity
